Data from patent US20110038791.

What was measured:
[1] = test system: Six1 + Eya2 Eya domain (ED) complex; assay: FP; conditions: DMSO no effect
[2] = test system: Six1, near full-length (natural degradation product ending at residue 259); assay: FP; conditions: 28 kD Six1 with 10 kD fluorescein DNA, single cuvette
[3] = test system: Six1, near full-length (natural degradation product ending at residue 259); assay: EMSA; conditions: preliminary estimate
[4] = test system: Six1 + Eya2 Eya domain (ED) complex; assay: EMSA; conditions: addition of Eya ED increases affinity
[5] = molecular target: T1, Six1, full-length (UniProt Q15475); assay: EMSA; conditions: Six1 alone
T1 sequence: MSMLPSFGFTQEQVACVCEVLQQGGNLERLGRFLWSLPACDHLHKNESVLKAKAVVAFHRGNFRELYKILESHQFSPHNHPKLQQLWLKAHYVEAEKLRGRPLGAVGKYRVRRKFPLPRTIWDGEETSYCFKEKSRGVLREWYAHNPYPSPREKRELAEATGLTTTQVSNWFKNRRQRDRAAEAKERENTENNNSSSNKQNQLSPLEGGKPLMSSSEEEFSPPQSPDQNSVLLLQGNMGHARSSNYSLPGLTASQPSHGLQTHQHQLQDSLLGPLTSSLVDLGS

## 5'-fluorescein 16 nt MEF3 dsDNA
[1]
  binding (fold increase in anisotropy): 3
[2]
  binding (fold increase in polarization): > 4

## 16 nt DNA containing MEF3 motif
[3]
  Kd: 1000 nM

## 18 nt dsDNA containing MEF3 site
[4]
  Kd: 300 nM
[5]
  Kd: 1000 nM
